This assay concerns the target Su(H)^wt-myc (Suppressor of Hairless, wildtype, pcDNA3.1) (D. melanogaster) (UniProt P28159).
Chain of UniProt P28159 (P28159 whole entry): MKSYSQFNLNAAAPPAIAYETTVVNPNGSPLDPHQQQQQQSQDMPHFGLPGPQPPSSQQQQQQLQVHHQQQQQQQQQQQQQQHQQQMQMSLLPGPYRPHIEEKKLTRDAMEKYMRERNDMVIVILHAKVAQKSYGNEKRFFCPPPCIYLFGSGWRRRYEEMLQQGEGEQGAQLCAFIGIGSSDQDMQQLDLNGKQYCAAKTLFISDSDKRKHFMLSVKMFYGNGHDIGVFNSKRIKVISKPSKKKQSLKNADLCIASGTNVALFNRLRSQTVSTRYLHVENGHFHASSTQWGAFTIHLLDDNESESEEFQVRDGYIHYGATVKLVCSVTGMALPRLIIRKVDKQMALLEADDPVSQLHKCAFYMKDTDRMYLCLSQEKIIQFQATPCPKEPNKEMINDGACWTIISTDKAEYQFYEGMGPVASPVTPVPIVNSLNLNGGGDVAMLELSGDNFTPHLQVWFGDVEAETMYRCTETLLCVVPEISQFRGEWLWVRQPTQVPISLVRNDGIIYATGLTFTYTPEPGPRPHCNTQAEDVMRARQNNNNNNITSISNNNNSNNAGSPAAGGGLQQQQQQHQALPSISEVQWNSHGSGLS

For the substance “ICN^RAMANK (pcDNA-ICN-RAMANK) (domain or fragment)”, the Su(H)^wt-myc protein level (Western blot, relative to beta-tubulin) 0-6 h after cycloheximide in HeLa RBPJ^KO cells co-expressing ICN^RAMANK (% of the induced protein) is 70.

The values above are taken from PMC9604145.
